Assay results published in patent US20250000904A1.

How the values were obtained:
Assay in all cases: cell-based or functional assay
[1] = target: TGFβR2-IL12Rβ signaling redirector receptor
[2] = target: TGFβR2-IL2Rβ signaling redirector receptor
[3] = target: TGFβR2-IL21Rβ signaling redirector receptor

Measured: increase in tumor cell numbers over base input after three rounds of restimulation, with recombinant TGFβ

Sequence of TGFβR2-IL12Rβ signaling redirector receptor (main, as listed by the source): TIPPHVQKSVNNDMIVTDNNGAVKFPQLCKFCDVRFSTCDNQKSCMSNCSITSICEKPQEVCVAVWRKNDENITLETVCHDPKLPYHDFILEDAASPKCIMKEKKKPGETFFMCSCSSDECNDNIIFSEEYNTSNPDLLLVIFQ
Sequence of TGFβR2-IL21Rβ signaling redirector receptor (chain, as listed by the source): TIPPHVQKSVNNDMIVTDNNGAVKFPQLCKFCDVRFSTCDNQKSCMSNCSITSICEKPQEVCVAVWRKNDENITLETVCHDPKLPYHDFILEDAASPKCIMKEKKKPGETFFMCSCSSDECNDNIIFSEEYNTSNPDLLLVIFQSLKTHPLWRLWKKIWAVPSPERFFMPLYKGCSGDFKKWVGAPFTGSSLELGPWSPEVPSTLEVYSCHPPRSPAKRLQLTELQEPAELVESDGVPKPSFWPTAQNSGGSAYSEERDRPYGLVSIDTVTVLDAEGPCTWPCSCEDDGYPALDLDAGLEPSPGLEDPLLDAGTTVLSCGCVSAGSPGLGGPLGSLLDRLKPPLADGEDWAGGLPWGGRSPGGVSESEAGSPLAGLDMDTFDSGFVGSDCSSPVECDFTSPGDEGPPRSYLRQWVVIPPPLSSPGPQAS
Sequence of TGFβR2-IL2Rβ signaling redirector receptor (chain, as listed by the source): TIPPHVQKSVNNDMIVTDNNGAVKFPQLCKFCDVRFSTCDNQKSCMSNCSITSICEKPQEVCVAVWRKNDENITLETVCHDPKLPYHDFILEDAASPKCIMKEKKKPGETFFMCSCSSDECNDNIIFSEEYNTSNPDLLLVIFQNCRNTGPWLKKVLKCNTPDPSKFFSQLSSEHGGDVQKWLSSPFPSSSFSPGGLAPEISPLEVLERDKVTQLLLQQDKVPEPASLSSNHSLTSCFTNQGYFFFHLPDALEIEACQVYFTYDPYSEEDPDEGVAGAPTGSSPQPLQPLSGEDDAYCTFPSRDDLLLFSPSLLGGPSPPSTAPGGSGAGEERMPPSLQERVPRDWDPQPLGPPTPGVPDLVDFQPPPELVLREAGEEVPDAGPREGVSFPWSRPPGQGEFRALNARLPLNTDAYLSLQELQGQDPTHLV

recombinant TGFβ (ligand)
1.5 fold: all assays above
